B1: Annexin A2 (Anxa2): S22A (protein)
parent chain: MSTVHEILCKLSLEGDHSTPPSAYGSVKPYTNFDAERDALNIETAVKTKGVDEVTIVNILTNRSNVQRQDIAFAYQRRTKKELPSALKSALSGHLETVILGLLKTPAQYDASELKASMKGLGTDEDSLIEIICSRTNQELQEINRVYKEMYKTDLEKDIISDTSGDFRKLMVALAKGRRAEDGSVIDYELIDQDARELYDAGVKRKGTDVPKWISIMTERSVCHLQKVFERYKSYSPYDMLESIKKEVKGDLENAFLNLVQCIQNKPLYFADRLYDSMKGKGTRDKVLIRIMVSRSEVDMLKIRSEFKRKYGKSLYYYIQQDTKGDYQKALLYLCGGDD
B2: Annexin A2 (Anxa2): S26A (protein)
parent chain: B1 parent chain

Test: sheep red blood cell hemolysis, OD542
Settings: glycan lost; control: WT Anxa2

| Protein | other: MBL-MASP complement activation |
| --- | --- |
| B1 | decreases |
| B2 | decreases |

From article PMC12407318
